From article PMC7384550 (Journal of molecular biology, 2019)
Substitutions are numbered along the chain they refer to. In names and notes the source's numbering stands.

T1: SinR (Bacillus subtilis, UniProt P06533 1-111)
T1 sequence: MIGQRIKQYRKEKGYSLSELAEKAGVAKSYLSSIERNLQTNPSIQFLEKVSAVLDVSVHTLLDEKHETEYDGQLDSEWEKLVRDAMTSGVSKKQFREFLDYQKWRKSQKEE

B1: 90 bp tapA-sipW-tasA promoter bending substrate (dsDNA)
DNA 1: GAAAGTTCTCTAAAGAGAACATTATAAATAATAAGGGAAGTGCAGTAAATTAGAGGAAAATCATGTATTGTTCTCTAAAGAGAACTTAG
DNA 2: CTAAGTTCTCTTTAGAGAACAATATCATGATTTTCCTCTAATTTACTGCACTTCCCTTATTATTTATAATGTTCTCTTTAGAGAACTTTC
modifications: internal fluorescein-dT (T22 of strand 1); internal BHQ-1-dT (T25 of strand 2), both written as T
B2: SinI (antagonist of SinR) (natural protein, Bacillus subtilis, UniProt P23308 1-57, looked up)
chain: MKNAKQEHFELDQEWVELMVEAKEANISPEEIRKYLLLNKKSAHPGPAARSHTVNPF
B3: SinI^quad (SinI K34E, L38Y, K41W, S42R) (natural protein, Bacillus subtilis, UniProt P23308 1-57, looked up)
chain: B2 chain with K34E, L38Y, K41W, S42R
B4: SinR (full-length, tetrameric transcriptional repressor) (natural protein, Bacillus subtilis, UniProt P06533 1-111, looked up)
chain: T1 sequence
B5: 22-mer inverted repeat, 6-FAM (dsDNA)
DNA 1: TTTGTTCTCTAAAGAGAACTTA
DNA 2: TAAGTTCTCTTTAGAGAACAAA

What was measured:
[1] = target: T1, SinR; test: fluorescence quenching DNA-bending assay
[2] = target: the molecule itself; test: SEC
[3] = target: B4; test: AUC
[4] = target: the molecule itself; test: AUC
[5] = target: T1, SinR; test: fluorescence anisotropy/polarization

binding result [3]	Binder	stoichiometry N [2]	further results
	B1		binding result [1]: binds
	EYDGQLDSEWEKLVRDAMTSGVSKKQFREFLDYQKWRKSQKEE (domain or fragment, Bacillus subtilis, UniProt P06533 69-111, looked up) [SinRC, the C-terminal oligomerization domain of SinR (residues 69-111)]	4	
binds	B2	2	
binds	B3		stoichiometry N [4]: 2
	B4	4	
	B5		Kd [5]: 249 ± 38 nM
